Columns and labels:
[1] = target: Acinetobacter baumannii diaminohydroxyphosphoribosylaminopyrimidine deaminase/5-amino-6-(5-phosphoribosylamino)uracil reductase (RibD) (Acinetobacter baumannii (strain ATCC 19606)); test: SEC; Superdex 200 26/60, 50 mM Tris-HCl, 250 mM NaCl pH 7.5; both Ni2+ column peaks ran as homogeneous samples of approximate mass 58 kDa (tagged subunit 42 038 Da)
[2] = target: Acinetobacter baumannii diaminohydroxyphosphoribosylaminopyrimidine deaminase/5-amino-6-(5-phosphoribosylamino)uracil reductase (RibD) (Acinetobacter baumannii (strain ATCC 19606)); test: crystal structure; form I (apo, C222(1), 2.2 A, two subunits in the asymmetric unit related by a noncrystallographic twofold) and form II (grown with 5 mM GMP, P4(3)2(1)2, 2.0 A, same dimer generated by a crystallographic twofold); crystals grown at 293 K
AbRibD = target: T1, AbRibD (Acinetobacter baumannii, UniProt D0CB74); test: X-ray crystallography (cocrystallization), […] A; conditions: 5 mM GMP; crystals at pH 5, 293 K; NADPH-binding site of reductase domain (adenine pocket); second site on surface at occupancy 0.5; authors judge binding not biologically relevant
T1 construct: gene ribD; full length, 362 residues untagged (386 with tag); N-terminal His6-TEV tag (24 extra residues) kept; E. coli BL21(DE3); homodimer; subunit 42038 Da tagged
T1 sequence (D0CB74 1-361): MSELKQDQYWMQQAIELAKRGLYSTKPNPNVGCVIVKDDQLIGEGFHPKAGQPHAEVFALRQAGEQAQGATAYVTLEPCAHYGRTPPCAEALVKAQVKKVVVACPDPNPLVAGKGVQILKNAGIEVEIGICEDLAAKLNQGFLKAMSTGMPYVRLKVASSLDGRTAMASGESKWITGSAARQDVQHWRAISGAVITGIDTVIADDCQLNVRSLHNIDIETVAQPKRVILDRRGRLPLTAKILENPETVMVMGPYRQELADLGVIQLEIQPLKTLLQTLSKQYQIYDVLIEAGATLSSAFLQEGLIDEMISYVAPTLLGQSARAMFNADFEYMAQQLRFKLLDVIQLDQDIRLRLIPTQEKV

stoichiometry N [1]	stoichiometry N [2]	Compound	X-ray crystallography (cocrystallization), 1.99 A (AbRibD)
2	2	Acinetobacter baumannii diaminohydroxyphosphoribosylaminopyrimidine deaminase/5-amino-6-(5-phosphoribosylamino)uracil reductase (RibD) (enzyme)	
		Nc1nc2c(ncn2[C@@H]2O[C@H](COP(=O)(O)O)[C@@H](O)[C@H]2O)c(=O)[nH]1 [GMP]	a GMP molecule was observed in the NADPH-binding site of the reductase domain

From publication PMC3668577, “Structure of diaminohydroxyphosphoribosylaminopyrimidine deaminase/5-amino-6-(5-phosphoribosylamino)uracil reductase from Acinetobacter baumannii” (Acta Crystallographica Section F: Structural Biology and …, 2013)
